Measured values: the DeepSol protein solubility set

Experiment: soluble on expression in E. coli; label from the status in PepcDB or PDB records

Sequence	soluble on expression in E. coli
MACRQEPQPQGPPPAAGAVASYDYLVIGGGSGGLASARRAAELGARAAVVESHKLGGTCVNVGCVPKKVMWNTAVHSEFMHDHADYGFPSCEGKFNWRVIKEKRDAYVSRLNAIYQNNLTKSHIEIIRGHAAFTSDPKPTIEVSGKKYTAPHILIATGGMPSTPHESQIPGASLGITSDGFFQLEELPGRSVIVGAGYIAVEMAGILSALGSKTSLMIRHDKVLRSFDSMISTNCTEELENAGVEVLKFSQVKEVKKTLSGLEVSMVTAVPGRLPVMTMIPDVDCLLWAIGRVPNTKDLSLNKLGIQTDDKGHIIVDEFQNTNVKGIYAVGDVCGKALLTPVAIAAGRKLAHRLFEYKEDSKLDYNNIPTVVFSHPPIGTVGLTEDEAIHKYGIENVKTYSTSFTPMYHAVTKRKTKCVMKMVCANKEEKVVGIHMQGLGCDEMLQGFAVAVKMGATKADFDNTVAIHPTSSEELVTLR	soluble
MADDVDNDDKLEKPVDLIWGCELNEQNKTFEFKVEDDEEKCEHQLALRTVCLGDKAKDEFHIVEIVDQEEGAEKVVPIATLKPSILPMATMVGIELDPPVTFRLKAGSGPLYISGQHVAM	soluble
MADIAILVAEEYERRMKHTTVGSRSSPVEFDWWKIIPAKMTIAFDKMKIESLKKNFEAKSEFALAISHGFFSA	not soluble
MADKHLIREKVLRNLNTIDKVEHRERSIKLAEKLFLLPEWNQAKVIGITLARHPEIETETIILQAKKEGKTVLIPKTFYPSRKMEFKKMDSSHPLTKTKFGILEPHELAETVDKDAIDLLIVPGVVFNKAHFRIGFGGGFYDRFLADFKGETVSLCLYEQQIEFTPESHDKPVSILIEG	soluble
MADKKLDTQLVNAGRSKKYTLGAVNSVIQRASSLVFDSVEAKKHATRNRANGELFYGRRGTLTHFSLQQAMCELEGGAGCVLFPCGAAAVANSILAFIEQGDHVLMTNTAYEPSQDFCSKILSKLGVTTSWFDPLIGADIVKHLQPNTKIVFLESPGSITMEVHDVPAIVAAVRSVVPDAIIMIDNTWAAGVLFKALDFGIDVSIQAATKYLVGHSDAMIGTAVCNARCWEQLRENAYLMGQMVDADTAYITSRGLRTLGVRLRQHHESSLKVAEWLAEHPQVARVNHPALPGSKGHEFWKRDFTGSSGLFSFVLKKKLNNEELANYLDNFSLFSMAYSWGGYESLILANQPEHIAAIRPQGEIDFSGTLIRLHIGLEDVDDLIADLDAGFARIV	soluble
MADPGSVGHVFRRAFSWLPAQFASQSDAPVGAPRQFRSTEHLSIEAIAAFVDGELRMNAHLRAAHHLSLCAQCAAEVDDQSRARAALRDSHPIRIPSTLLGLLSEIPRCPPEGPSKGSSGGSSQGPPDGAAAGFGDRFADGDGGNRGRQSRVRR	soluble
MADYWKDVLPVDPYVVKSRSMLQDIDRQIITQLYQPLIGPVAFSLYMTLWGELEQNRLWGGESTHRQLMGMTQSNLKTIHQEQGKLEGIGLLKVYMKESERQERLFIYELLPPLRPNEFFEDGMLNVFLYNRVGKTKYQQLKQFFTHPAISEDAKDITRPFNHAFESLQPSEWKLTSDMEETVRLAEGSEYTSVGQSPSYTITEDVFDFDLFLAGLSETMIPRKAMTQQVRDTIKKLSYLYGIDPLQMQNVVMSAIDERDVITTEALRKAASDWYQIERNGQLPDLVEKTQPVHLREGEQPAEEDSLDGKLIALLEAISPKKLLQDIADGTEPSKADLKIIEEIMFEQKLEPGVTNVLIYYVMLKTDMKLSKNYIQKIASHWARKKVKTVREAMKLAIEENRQYLEWAEGKTKSSKRNQKVIREEKLPDWMTEKETASDSESGQQKLHPQDLEEQKKKMMEEMQKLKKYSAY	not soluble
MAEATDVVLVGGGIMSATLGVLLKELEPSWEITLIERLEDVALESSNAWNNAGTGHSALCELNYAPLGANGIIDPARALNIAEQFHVSRQFWATLVAEGKLEDNSFINAVPHMSLVMNEDHCSYLQKRYDAFKTQKLFENMEFSTDRNKISDWAPLMMRGRDENQPVAANYSAEGTDVDFGRLTRQMVKYLQGKGVKTEFNRHVEDIKRESDGAWVLKTADTRNPDGQLTLRTRFLFLGAGGGALTLLQKSGIPEGKGYGGFPVSGLFFRNSNPETAEQHNAKVYGQASVGAPPMSVPHLDTRNVDGKRHLMFGPYAGFRSNFLKQGSLMDLPLSIHMDNLYPMLCAGWANMPLTKYLLGELRKTKEERFASLLEYYPEANPDDWELITAGQRVQIIKKDSEKGGVLQFGTEIVAHADGSLAALLGASPGASTAVPLMIRLMHQCFPERAPSWEDRLKELVPGYGIKLNENPERADEIIAYTAKVLDI	not soluble
MAEDYKLIDNEEKHRYEFQIDDKIAKIDYIKSNNGEIYLVHTEVPASLGGRGVGSQLAEKTLADIERQGLRLVPLCPFVAGYIHKHPEWKRIVMRGIHIK	not soluble
MAEEAVDARGEGARFIEKVKSICGNTSRILYKYDEPTDPRYGYLPHERPLDVYLRYGMIVVDKPPGPTSHEVVAWIKRMLGVSRAGHGGTLEPLPAPRGLRGGDILK	soluble
MAEETDVIVVGAGLSGLVAATEIADAGKRVIVVDQEGEQSVGGQAFWSFGGLFLVNSPEQRRLGIKDSFDLAMQDWLGTAGFDRDEDHWPRKWAEAYVAFAAGEKRDWLHAMGHRILPVVGWAERGGYDAMGHGNSVPRFHVTWGTGPGIVEPFERRAREAMKSGRLIFKFRHRVDALSITNGTVDGVSGAVLAPDNVERGKSSSRNVVGEFALKAQAVIVASGGIGGNHELVRQNWPKRLGEPPKFMISGVPEHVDGRMIGITEQAGARLINRDRMWHYVEGIQNWSPIWPRHGIRILPGPSSMWFDATGTRLPAPLFPGSDTLGQLKYIMSTGHDYSWFILTQSIIKKEFALSGSEQNPDLTGKSWRMTLRRATNKGAPAPVEAFKSHGVDFIVRDKIDDLVTAMNKLAGSDLLRLEHIKMQIEARDREIANPYVKDAQVMNIHNARRYIGDKLIRTASPHRILDPAHGPLIAVKLNILTRKTLGGFETDLDSRVFGGEGSIIPGLYAVGEAAGFGGGGVHGYRSLEGTFLGGCLFSGRNAGRAAAKAVG	not soluble
MAEITEKVLKKPNAIPDVFERKGGSAPTATHYCAGCGHGIIHKLMAEAIDELEIQDRCVLISPVGCAVFAYYYFDCGNIQVAHGRAPAVGTGVSRAEDNAIVMSYQGDGDLASIGLNETIQAANRGEKMAVFFVNNTVYGMTGGQMAPTTLIGEKTVTCQTGRDPRFAGYPIHMCELLSSLKAPVFIERVSVSDIAHIRKAKRAIKKALEIQRDGKGYAFVEILSPCPTNLRQDANAAQKFINEEMEKEFPLQNFRDRSAEVETLNRGESDFSKECLDNIFEVNSKGAEDPSEDLSFE	not soluble
MAEKPHMNLVVIGHVDHGKSTLVGHLLYRLGYIEEKKLKELEEQAKSRGKESFKFAWILDKMKEERERGITIDLTFMKFETKKYVFTIIDAPGHRDFVKNMITGASQADAAILVVSARKGEFEAGMSTEGQTREHLLLARTMGIEQIIVAVNKMDAPDVNYDQKRYEFVVSVLKKFMKGLGYQVDKIPFIPVSAWKGDNLIERSPNMPWYNGPTLVEALDQLQPPAKPVDKPLRIPVQNVYSIPGAGTVPVGRVETGVLRVGDKVVFMPPGVVGEVRSIEMHYQQLQQAEPGDNIGFAVRGVSKSDIKRGDVAGHLDKPPTVAEEFEARIFVIWHPSAITVGYTPVIHVHTASVSSRIIEIKAKLDPKTGQVVEQNPQFLKAGDAAIVRFKPVKPLVVEKFSEIPQLGRFAMRDMNRTVGIGIVTDVKPAKVDIKAK	soluble
MAELIHSTIGRLLEQTADAYPDRDAVVYPDRNIRYTYAQFDSLCRQTAKGLMRMGIGKGDHVAIWASNISEWLAVQFATAKIGAVLVTVNTNYQAHELDYLLKQSDAAALIIMDSYRGTSYPDIVNSLIPELQEAKPGQLKSERYPFLKTLIYIGNKRLSGMYHWDDTEILAKTVTDAELEERMNSLDKDNVINMQYTSGTTGFPKGVMLTHFNVINNAANIAECMALTSQDRMCIPVPFFHCFGCVLGVLACVSVGAAMIPVQEFDPVTVLKTVEKEKCTVLHGVPTMFIAELHHPDFDAYDLSTLRTGIMAGSPCPSEVMKAVIERMGMKDITIAYGQTEASPVITQTRANDSFIRRVETTGRALPHTEVKIVEPGTCQEVQRGMQGELCTRGYHVMKGYYKDKDATRKAINHDGWLFTGDLAVMDEDGYCRITGRLKDMLIRGGENIYPREIEEFLYQHPAVLDVQVVGVPDAKFGEEAAAWIKLKDGKSVSPDELKAYCKGKIARHKIPRYVIFTDDYPMTASGKIQKY	not soluble
MAELWEIVSFLDEYLKISEYPDKSSNGLQVEGKEEVNTIAFAVDACLDTIVKARAFNADMLIVHHGLIWGGVKYVKGLFAKRVKELLKSNMNLYAAHLPLDAHPEVGNNAQLLKLLGLEPKEKFGEYHGVMIGYIGEFEEEKPLPLIAQMLAEKLPVDYVKSYEFGVQEIKRVGVVSGGGGFAVEEASEKGVDLFITGEFTHEDYRAAEDLRLSVIAAGHYATETLGVKALMPILREKFGVKTIFIDSPTGLLEHHHHHH	soluble
MAEMDERFQQILSWQQMDQNKAISQILQESAMQKAAFEALQVKKDLMHRQIRSQIKLIETELLQLTQLELKRKSLDTESLQEMISEQRWALSSLLQQLLKEKQQREEELREILTELEAKSETRQENYWLIQYQRLLNQKPLSLKLQEEGMERQLVALLEELSAEHYLPIFAHHRLSLDLLSQMSPGDLAKVGVSEAGLQHEILRRVQELLDAARIQPELKPPMGEVVTPTAPQEPPESVRPSAPPAELEVQASECVVCLEREAQMIFLNCGHVCCCQQCCQPLRTCPLCRQDIAQRLRIYHSS	soluble
MAENKTINKEQNRTENNEIVIMNFSGIYKEQQFYRNHAEMQEDISWLEVQDLPGSNCYCDEEAKNRILDDIKNYTGNGIHFIDSGNYHYVSRLWLSKMEHPFRLLVFDNHTDMQLPAFGGLLSCGGWIAASLEEVPMLQEVILVGPDEEAYMQVEPEFQQKVQFLSREKLLAMTGEEKNTFFRNLRADLPMYISVDKDVLCTADASTTWSQGDMSLEKLQKFLEIVLQQQQILGMDICGECDPDACERNLLNDRANQKLLELWKKYFPQIRERRQDI	not soluble
MAEPLQPDPGAAEDAAAQAVETPGWKAPEDAGPQPGSYEIRHYGPAKWVSTSVESMDWDSAIQTGFTKLNSYIQGKNEKEMKIKMTAPVTSYVEPGSGPFSESTITISLYIPSEQQFDPPRPLESDVFIEDRAEMTVFVRSFDGFSSAQKNQEQLLTLASILREDGKVFDEKVYYTAGYNSPVKLLNRNNEVWLIQKNEPTKENE	soluble
MAEPQPASSGLTDETAFSCCSDPDPSTKDFLLQQTMLRIKDPKKSLDFYTRVLGLTLLQKLDFPAMKFSLYFLAYEDKNDIPKDKSEKTAWTFSRKATLELTHNWGTEDDETQSYHNGNSDPRGFGHIGIAVPDVYSACKRFEELGVKFVKKPDDGKMKGLAFIQDPDGYWIEILNPNKIATII	soluble
MAEQRWTGQLDLTVFNNGQSSKARNIFFEKALKVLRPIYLEQSPVPTFYIVNVGGGYLDGDRYRVNVNLEDNAQVTLTSQGATKIYKTPNDHVEQYQTFNLSNQSYMEFVADPIIAYENAKFFQHNTFNLKEDSAMFYTDILTPGYSSNGQDFTYNYMHLINEIYIDNQLVVFDNMMLSPDKSRLDGIGYMENYTHLGSAYFIHPDVNQSFIDDIYAAVADFQKQYDCRIGISQLPTHGLAVRILTKRTQIIEEILTRVQSYINQTIYHRQINFLRKYLEHHHHHH	not soluble
MAEQSDKDVKYYTLEEIQKHKDSKSTWVILHHKVYDLTKFLEEHPGGEEVLREQAGGDATENFEDVGHSTDARELSKTYIIGELHPDDRSKIAKPSETL	soluble
MAEQYSEINTDTLERVTEIFKALGDYNRIRIMELLSVSEASVGHISHQLNLSQSNVSHQLKLLKSVHLVKAKRQGQSMIYSLDDIHVATMLKQAIHHANHPKESGL	soluble
